Reference: US20140024806A1
Square brackets hold non-standard residues; d marks the D form. Ends that are not written are not given here. Hyp = O=C(O)[C@@H]1C[C@@H](O)CN1

Assays:
[1] = target: growth hormone receptor (GHR) on NIH 3T3-L1 cells (Mus musculus (Mouse)) (UniProt P16882); test: radioreceptor competition assay, [125I]-hGH on GHR-expressing NIH 3T3-L1 cell monolayers
[2] = target: anti-hGH-(SO)10 antibodies (1:10,000 serum dilution); test: competition ELISA, hGH-(SO)10-coated plates, serum 1:10,000, 100 ug/ml (SO)10 as competitive inhibitor

Chain of UniProt P16882 (P16882 25-650 limits assumed, form in doubt): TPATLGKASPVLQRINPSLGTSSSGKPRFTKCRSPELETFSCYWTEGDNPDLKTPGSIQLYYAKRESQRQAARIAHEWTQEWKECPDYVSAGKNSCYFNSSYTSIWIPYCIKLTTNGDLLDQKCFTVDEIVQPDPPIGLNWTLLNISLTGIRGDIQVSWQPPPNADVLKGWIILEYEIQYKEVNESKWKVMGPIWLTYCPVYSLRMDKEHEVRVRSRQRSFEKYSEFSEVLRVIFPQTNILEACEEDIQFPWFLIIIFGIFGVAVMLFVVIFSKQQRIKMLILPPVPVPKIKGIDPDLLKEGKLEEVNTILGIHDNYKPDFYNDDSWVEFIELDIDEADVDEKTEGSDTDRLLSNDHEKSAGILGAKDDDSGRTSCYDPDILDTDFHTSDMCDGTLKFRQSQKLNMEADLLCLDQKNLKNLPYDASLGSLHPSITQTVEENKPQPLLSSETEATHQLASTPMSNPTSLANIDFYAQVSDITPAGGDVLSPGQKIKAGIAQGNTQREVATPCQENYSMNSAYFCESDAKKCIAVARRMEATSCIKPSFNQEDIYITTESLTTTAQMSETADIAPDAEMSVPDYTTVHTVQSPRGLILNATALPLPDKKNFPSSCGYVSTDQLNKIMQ

Molecule	EC50 [1] [nM]	percent inhibition [2] [%]
hGH-(SO)10-EGFP fusion glycoprotein (human growth hormone, (Ser-Hyp)10, enhanced green fluorescent protein) (ligand)	10	
S[Hyp]S[Hyp]S[Hyp]S[Hyp]S[Hyp]S[Hyp]S[Hyp]S[Hyp]S[Hyp]S[Hyp] (also: O-glycosylated, sites not given here) [purified (SO)10 glycomodule]		5
